Measured values: patent publication US20130149312A1, “COMPOSITIONS AND METHODS FOR TREATING COPD EXACERBATION” (MCMASTER UNIVERSITY, priority 2010, published 2013)

What was measured:
[1] = target: T1, IL-1R1 (Homo sapiens, UniProt P14778); assay: HRV14-induced IL-8 release in BEAS-2b/H292 epithelial cells; details: BEAS-2b/H292 cells; PEG purified HRV14; anakinra 25 nM (FIG. 8B)
T1 sequence (P14778 18-569): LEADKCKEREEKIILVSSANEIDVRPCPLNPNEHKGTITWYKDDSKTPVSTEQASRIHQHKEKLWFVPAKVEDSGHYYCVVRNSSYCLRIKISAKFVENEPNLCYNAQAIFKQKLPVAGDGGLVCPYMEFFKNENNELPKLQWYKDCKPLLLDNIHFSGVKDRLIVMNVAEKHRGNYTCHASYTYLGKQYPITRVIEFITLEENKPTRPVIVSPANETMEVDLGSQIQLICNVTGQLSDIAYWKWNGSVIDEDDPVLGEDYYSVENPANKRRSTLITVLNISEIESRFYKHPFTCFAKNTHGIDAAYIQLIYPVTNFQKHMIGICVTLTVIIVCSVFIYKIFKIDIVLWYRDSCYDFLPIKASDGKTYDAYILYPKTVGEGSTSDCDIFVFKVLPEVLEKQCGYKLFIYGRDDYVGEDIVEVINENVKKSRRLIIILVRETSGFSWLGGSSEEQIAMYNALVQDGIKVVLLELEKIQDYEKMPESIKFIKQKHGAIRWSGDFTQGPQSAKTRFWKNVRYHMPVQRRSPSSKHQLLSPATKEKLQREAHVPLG

[2] = target: T2, IL-1R1 (Mus musculus, UniProt P13504); assay: Acute tobacco smoke model of lung inflammation (BAL cells); assay type: in vivo; details: Balb/c mice; smoke twice daily; BAL day 5; 35F5/MAB005 15 mg/kg i.p. once daily; anakinra 48 mg/kg/day s.c. by ALZET pump
T2 construct: from tissue; host or cells: living Balb/c mice (lung / systemic), read-out BAL cell counts
T2 sequence (P13504 20-576): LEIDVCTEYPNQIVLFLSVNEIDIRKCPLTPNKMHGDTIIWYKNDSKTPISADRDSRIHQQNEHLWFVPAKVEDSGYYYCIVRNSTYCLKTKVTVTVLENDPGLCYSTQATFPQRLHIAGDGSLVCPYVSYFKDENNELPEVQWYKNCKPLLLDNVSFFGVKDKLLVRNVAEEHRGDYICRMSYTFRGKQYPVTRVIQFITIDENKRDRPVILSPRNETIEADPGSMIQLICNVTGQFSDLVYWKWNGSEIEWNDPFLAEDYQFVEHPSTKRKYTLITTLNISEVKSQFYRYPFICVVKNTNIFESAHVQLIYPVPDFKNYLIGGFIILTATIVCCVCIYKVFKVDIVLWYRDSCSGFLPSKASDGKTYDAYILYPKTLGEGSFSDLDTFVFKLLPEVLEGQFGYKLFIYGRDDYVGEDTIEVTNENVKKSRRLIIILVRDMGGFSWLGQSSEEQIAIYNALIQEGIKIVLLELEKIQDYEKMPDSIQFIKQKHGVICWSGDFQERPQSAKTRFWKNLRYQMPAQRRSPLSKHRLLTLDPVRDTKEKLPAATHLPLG
Description: The antibody 35F5 is a monoclonal antibody which binds to mouse IL-1R1 and prevents the binding of both IL-1beta and IL-1alpha to the receptor IL-1R1Anakinra antagonises the effects of both IL-1beta and IL-1alpha. […] The data shown in this example confirms that inhibition of IL-1R1 by 35F5 decreases inflammation in an acute model of murine lung inflammation, induced by a stimulus relevant to COPD such as smoke. This is consistent with previous observations in the public domain, and with other studies using IL-1Ra (anakinra; IL-1 receptor antagonist). In this mouse model, cigarette smoke causes significant increases in neutrophil BAL cell numbers after 4 days of smoke inhalation. To investigate the effects of IL-1R1 pathway inhibition on the acute inflammatory response to cigarette smoke inhalation, Balb/c mice were exposed to cigarette smoke twice daily (for 50 minutes) […] and dosed intraperitoneally once daily with either 35F5, isotype control rat IgG1 (MAB005), or saline, starting 48 hours before the first smoke exposure and continuing for 4 days. On Day 5, animals were terminated and BAL was performed. An additional treatment arm was included in which animals were exposed to cigarette smoke as above but dosed sub-cutaneously (SC) continuously with anakinra using infusion pumps (ALZET) starting dosing 48 hours prior to the first smoke exposure. […]

[3] = target: T3, IL-1R (Homo sapiens, UniProt P14778); assay: Smoke plus HRV virus induced IL-8 release in BEAS-2B cells; assay type: cell-based; details: 20% smoked medium then HRV, different anakinra concentrations
T3 sequence (P14778 18-569): T1 sequence (P14778 18-569)
Description: (§1) The inflammatory response of epithelial cell in vitro was measured in response to smoke conditioned medium, or smoke conditioned medium and virus. The smoke conditioned medium was generated by bubbling cigarette smoke through tissue culture (TC) medium, and is referred to later in this example as ‘smoke’ or ‘smoke treatment’ of the cells. One cigarette with the filter removed bubbled through 25 mL medium is equal to 100% smoked medium. Cigarette smoke treated medium was titrated for IL-8 release and cell confluence on BEAS-2b cells. 20% smoked medium was used for all experiments as it induced pro-inflammatory cytokine release without significant cell death.
(§2) To examine the role of IL-1R in smoke and virus induced inflammation, cells were first smoke treated with a pre-treatment of IL-1R antagonist, and then as required, infected with HRV virus with another pre-treatment of IL-1R antagonist, anakinra. (FIGS. 10A and 10C).
(§3) A lit cigarette (no filter) was connected by tubing to a falcon tube (50 ml capacity) containing tissue culture medium which was supported in a glass flask. A peristaltic pump drew the smoke through the tubing and into the tissue culture medium. The waste smoke was drawn into a beaker of detergent. The whole procedure was performed within a fume cupboard to protect the operator and other users of the lab. The procedure was therefore not sterile. […]

[4] = target: T3, IL-1R; assay: Smoke conditioned medium induced IL-8 release in BEAS-2B cells; assay type: cell-based; details: 20% smoked medium, 24 hours
Description: as §1, §2, §3

[5] = target: T2, IL-1R1; assay: IL-1beta-induced neutrophil mediated inflammation in the mouse lung (BAL); assay type: in vivo; details: Balb/c mice; anakinra subcutaneously 1 hour before IL-1beta 5 ng/50 μl intratracheally; BAL after 4 hours; vs control IL-1 treated animals
Description: As noted above, the effect of IL-1R1 antagonist treatment on an IL-1beta-induced neutrophil mediated inflammation in the mouse lung was also examined (FIG. 1B). Anakinra (KINERET™) was dosed subcutaneously one hour before a treatment of IL-1beta of 5 ng/50 μl. After four hours, cell counts were obtained by BAL. Anakinra reduced the cell count by 71% compared to control IL-1 treated animals.
Mice were adult Balb/c females. Anakinra was dosed subcutaneously one hour before IL-1beta was administered intratracheally to the mouse lung using a dose of 5 ng in 50 ul. After 4 hours, the lungs of the mouse were lavaged, essentially as for the acute smoke model (example 2), and total cells and differential cell counts performed.

[6] = target: T2, IL-1R1; assay: Inhaled LPS model of acute lung inflammation (BAL cells); assay type: in vivo; details: Balb/c mice; anakinra by ALZET osmotic pump from 48 hours before inhaled LPS; BAL 48 hours after challenge; vs control LPS treated mice; P<0.001
Description: Lipopolysaccharide (LPS) is a component of bacterial cell walls of gram negative bacteria. […] The effect of an IL-1R1 antagonist, anakinra, was examined in a mouse model of LPS mediated inflammatory cell influx into the lung. Anakinra inhibited LPS mediated inflammatory cell influx as measured by BAL total cells into the lung by 47% compared to control LPS treated mice (P<0.001) (FIG. 7).
Anakinra was delivered using an ALZET osmotic pump as described for acute smoke model, and was also administered to the mice 48 hours before the LPS administration. Mice were adult female Balb/c mice.
The mice were placed in a semi-open exposure inhalation box (max 10 mice) and were exposed once to aerosolised LPS—total inhalation session time 12 minutes. P. aeriginosa LPS was used at a concentration of 5 mg/ml and was aerosolised using a nebuliser (such as a PariStar Jet Star nebuliser), filled with 5 ml volume and flow from the nebuliser was 5 l/min (Pressure=2 bar). The control groups received the same procedure but with PBS. […] The BAL was then centrifuged—the cell pellet was analysed using standard automated cell counting and differential cell counting. […] The significance of differences between groups was calculated using Student's T test with one-tailed distribution and two-sample unequal variance. […]

How did the “IL-8 levels after HRV14 infection” value [1] turn out when anakinra was run?
Its value is “reduced”.

And the “tobacco smoke-induced acute inflammatory cell infiltration in BAL” value [2]?
Its value is “significantly inhibited”.

What about the “combined smoke and virus IL-8 response” value [3] of the same substance?
Its value is “Concentration dependent and complete inhibition”.

What about the “smoke-induced IL-8 response” value [4] of the same substance?
Its value is “dose dependent effect”.

And the “smoke-induced IL-8 response” value ([4]; listed as Anakinra)?
Its value is “partial inhibition”.

And the “inhibition of IL-1beta-induced increase of neutrophils / cell count in BAL” value [5]?
Its value is 71%.

What about the “inhibition of LPS mediated inflammatory cell influx (BAL total cells)” value [6] of the same substance?
Its value is 47%.
